Experiments:
[1] = target: Ixodes ricinus cathepsin B, native in gut tissue extract (Ixodes ricinus (endogenous in gut tissue))
[2] = target: human cathepsin L (human)
[3] = target: Ixodes ricinus cathepsin L1 (Ixodes ricinus)
[4] = target: human cathepsin B (human)
[5] = target: cathepsins L and B activity of I. ricinus gut tissue extract (Ixodes ricinus (endogenous in gut tissue))
[6] = target: human cathepsin S (human) (UniProt P25774)
[7] = target: T1, human cathepsin K (human) (UniProt P43235)
T1 sequence: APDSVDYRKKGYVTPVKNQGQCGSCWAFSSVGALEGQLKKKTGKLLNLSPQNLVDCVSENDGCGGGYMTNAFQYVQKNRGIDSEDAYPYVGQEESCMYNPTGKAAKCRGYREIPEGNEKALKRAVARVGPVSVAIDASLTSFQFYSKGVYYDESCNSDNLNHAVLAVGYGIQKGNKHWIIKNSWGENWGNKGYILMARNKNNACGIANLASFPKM

[8] = target: human cathepsin C (human)
[9] = target: cathepsin L-like activity of I. ricinus gut tissue extract (Ixodes ricinus (endogenous in gut tissue))
[10] = target: Ixodes ricinus cathepsin L3 (Ixodes ricinus)
[11] = target: Ixodes ricinus cathepsin C, native in gut tissue extract (Ixodes ricinus (endogenous in gut tissue))
[12] = target: T2, human cathepsin H (human)
T2 sequence (P09668 116-335, looked up): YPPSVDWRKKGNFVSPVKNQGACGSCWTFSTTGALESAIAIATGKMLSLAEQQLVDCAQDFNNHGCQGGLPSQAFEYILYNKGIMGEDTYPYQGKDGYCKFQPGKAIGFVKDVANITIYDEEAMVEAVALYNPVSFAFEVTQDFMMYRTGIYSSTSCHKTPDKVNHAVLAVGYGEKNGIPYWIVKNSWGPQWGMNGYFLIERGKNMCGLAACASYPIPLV

Sequence of human cathepsin S (human) (P25774 115-331): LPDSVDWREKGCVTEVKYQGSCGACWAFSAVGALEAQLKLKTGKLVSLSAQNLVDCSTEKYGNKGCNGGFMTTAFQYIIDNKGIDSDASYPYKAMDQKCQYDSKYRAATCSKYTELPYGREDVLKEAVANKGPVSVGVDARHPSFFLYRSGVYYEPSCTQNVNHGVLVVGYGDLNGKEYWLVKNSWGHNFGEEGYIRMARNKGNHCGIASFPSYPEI
Sequence of human cathepsin L (human) (P07711 18-333): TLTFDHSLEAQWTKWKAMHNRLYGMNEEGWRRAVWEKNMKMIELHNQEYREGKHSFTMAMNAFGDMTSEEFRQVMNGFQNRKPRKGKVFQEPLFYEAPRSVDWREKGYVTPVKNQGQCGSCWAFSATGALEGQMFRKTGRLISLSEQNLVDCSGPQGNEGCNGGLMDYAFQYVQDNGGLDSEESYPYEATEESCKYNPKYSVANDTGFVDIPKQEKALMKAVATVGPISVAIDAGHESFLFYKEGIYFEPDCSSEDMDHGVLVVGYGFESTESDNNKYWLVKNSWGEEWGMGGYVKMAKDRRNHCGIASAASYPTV
Sequence of human cathepsin C (human) (P53634 25-463): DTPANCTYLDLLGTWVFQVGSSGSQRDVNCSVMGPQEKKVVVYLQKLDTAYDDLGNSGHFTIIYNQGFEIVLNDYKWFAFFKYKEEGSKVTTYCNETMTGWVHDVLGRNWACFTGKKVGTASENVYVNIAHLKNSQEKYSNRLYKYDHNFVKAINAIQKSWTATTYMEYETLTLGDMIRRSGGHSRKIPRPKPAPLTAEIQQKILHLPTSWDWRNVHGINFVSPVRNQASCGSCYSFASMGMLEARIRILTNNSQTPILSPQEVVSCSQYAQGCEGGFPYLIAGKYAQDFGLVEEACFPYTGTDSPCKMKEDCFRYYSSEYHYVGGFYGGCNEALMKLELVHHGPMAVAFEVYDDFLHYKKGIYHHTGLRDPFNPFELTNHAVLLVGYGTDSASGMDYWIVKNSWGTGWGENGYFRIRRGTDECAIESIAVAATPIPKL

B1: mialostatin (natural protein)
chain: GSASRSKRALVGGWKTQDPTNPKFENLAHYAVSTQVEGREYYDTVLELLEVQTQIVAGVNYKLKFTTTQSTCKIETGVEYSKELCQPKTNKVEAVCTSIIYTVPWQNIKRVLSYHCDAPNDV
- IC50 of inhibition of cathepsin B activity in gut tissue extract (kinetic assay, Z-Arg-Arg-AMC, pH 6.5, with Z-Phe-Phe-DMK, 37 °C) [1]: 12.1 nM
- IC50 of inhibition of protease activity (kinetic assay, 33 pM cathepsin L, Z-Leu-Arg-AMC, pH 5.5, 37 °C) [2]: 0.38 nM
- IC50 of inhibition of protease activity (kinetic assay, 0.1 nM IrCL1, Z-Phe-Arg-AMC, pH 4.5, 37 °C) [3]: 0.071 nM
- IC50 of inhibition of protease activity (kinetic assay, 35 pM cathepsin B, Z-Leu-Arg-AMC, pH 5.5, 37 °C) [4]: 9 nM
- IC50 of inhibition of cathepsins L and B activity in gut tissue extract (kinetic assay, Z-Phe-Arg-AMC, pH 5.0, 37 °C) [5]: 3.1 nM
- IC50 of inhibition of protease activity (kinetic assay, 350 pM cathepsin S, Z-Val-Val-Arg-AMC, pH 5.5, 37 °C) [6]: 2.2 nM
- IC50 of inhibition of protease activity (kinetic assay, 5 nM cathepsin K, Z-Leu-Arg-AMC, pH 5.5, 37 °C) [7]: 9.7 nM
- IC50 of inhibition of protease activity (kinetic assay, 0.5 nM cathepsin C, Gly-Arg-AMC, pH 5.5, 37 °C) [8]: 2.1 nM
- IC50 of inhibition of cathepsin L activity in gut tissue extract (kinetic assay, Z-Phe-Arg-AMC, pH 4.5, with CA-074, 37 °C) [9]: 0.18 nM
- IC50 of inhibition of protease activity (kinetic assay, 20 pM IrCL3, Z-Phe-Arg-AMC, pH 4.5, 37 °C) [10]: 0.39 nM
- IC50 of inhibition of cathepsin C activity in gut tissue extract (kinetic assay, Gly-Arg-AMC, pH 5.5, with E-64, 37 °C) [11]: 91.7 nM
- IC50 of inhibition of protease activity (kinetic assay, 20 nM cathepsin H, Z-Leu-Arg-AMC, pH 6.8, 37 °C) [12]: 24 nM

Reference: publication PMC8161381
